Laboratory results as given in US20250114467A1 (SHANGHAI FUDAN ZHANGJIANG BIO PHARMACEUTICAL, published 2025).

Tests used:
[1] = biological target: T1, recombinant DLL3 protein (purchased from ACRO, DL3-H5255) (human, UniProt Q9NYJ7 27-479); assay: ELISA, plate-coated human DLL3 protein 1 µg/ml
T1 construct: Bought; also called human DLL3 protein; hDLL3
T1 sequence (looked up): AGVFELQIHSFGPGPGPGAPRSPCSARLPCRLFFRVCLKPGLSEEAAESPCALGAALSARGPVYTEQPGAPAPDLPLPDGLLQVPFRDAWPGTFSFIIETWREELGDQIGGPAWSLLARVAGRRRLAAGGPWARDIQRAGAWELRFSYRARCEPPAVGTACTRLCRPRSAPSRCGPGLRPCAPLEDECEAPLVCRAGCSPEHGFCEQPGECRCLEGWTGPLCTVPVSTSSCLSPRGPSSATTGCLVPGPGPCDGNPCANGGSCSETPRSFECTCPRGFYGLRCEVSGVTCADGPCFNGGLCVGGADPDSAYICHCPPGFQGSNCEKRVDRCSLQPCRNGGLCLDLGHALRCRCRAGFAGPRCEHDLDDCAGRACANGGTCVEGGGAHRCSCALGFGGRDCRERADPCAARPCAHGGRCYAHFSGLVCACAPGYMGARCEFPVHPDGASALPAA
Source text: Six 6-week-old SPF grade female Balb/C mice (purchased from Shanghai Jihui Laboratory Animal Care Co., Ltd.) were selected and randomly divided into two groups, A and B. They were immunized with recombinant DLL3 protein (purchased from ACRO, DL3-H5255) at two-week intervals. Freund's complete adjuvant was used for the first immunization and Freund's incomplete adjuvant was used for subsequent immunizations. On days 35 and 49, blood samples were collected from the mice via orbital bleeding, and the immune serum titers of the mice were detected using conventional methods of ELISA and Flow Cytometry (FACS). ELISA detection method: DLL3 protein was diluted with PBS to a concentration of 1 μg/ml. 100 μl/well was added to a 96-well ELISA plate and incubated overnight at 4° C. The next day, the supernatant was discarded, and each well was blocked with 200 μl of 2% milk in PBS for 2 hours. After discarding the blocking solution, the wells were washed 3 times with 200 μl of PBST (0.1% Tween20). The serum to be detected was pre-diluted 100 times as the starting concentration, followed by a 3-fold gradient dilution across 11 concentrations, with 100 μl added to each well of the ELISA plate. After incubating at room temperature for 1 hour, the supernatant was discarded and the wells were washed 5 times with 200 μl of PBST (0.1% Tween20). Then, 100 μl of HRP-labeled goat anti-mouse secondary antibody (Jackson, 1:10000) was added and incubated at room temperature for 1 hour. After discarding the supernatant, the wells were washed 7 times with 200 μl of PBST (0.1% Tween20). 100 μl of TMB chromogen solution was added to each well for 10 minutes. The reaction was terminated with 2M HCl, and absorbance value at 450 nm was read with a Microplate Reader (purchased from Biotek, Elx808).
For the hybridoma clones with good binding and internalization activities identified in Example 5, the heavy chain variable region sequences were synthesized and cloned into the pFUSEss-CHIg-hG1 vector (purchased from InvivoGen, catalog number pfusess-hchgl) comprising the amino acid sequence of the human antibody IgG1 heavy chain constant region by homologous recombination.

[2] = biological target: T2, human DLL1 (purchased from Acro, DL1-H52H8) (human, UniProt O00548 18-540); assay: ELISA on plate-coated human DLL1 protein (1 µg/ml), HRP goat anti-human secondary, OD 450 nm [left panel]
T2 construct: Bought; also called hDLL1
T2 sequence (looked up): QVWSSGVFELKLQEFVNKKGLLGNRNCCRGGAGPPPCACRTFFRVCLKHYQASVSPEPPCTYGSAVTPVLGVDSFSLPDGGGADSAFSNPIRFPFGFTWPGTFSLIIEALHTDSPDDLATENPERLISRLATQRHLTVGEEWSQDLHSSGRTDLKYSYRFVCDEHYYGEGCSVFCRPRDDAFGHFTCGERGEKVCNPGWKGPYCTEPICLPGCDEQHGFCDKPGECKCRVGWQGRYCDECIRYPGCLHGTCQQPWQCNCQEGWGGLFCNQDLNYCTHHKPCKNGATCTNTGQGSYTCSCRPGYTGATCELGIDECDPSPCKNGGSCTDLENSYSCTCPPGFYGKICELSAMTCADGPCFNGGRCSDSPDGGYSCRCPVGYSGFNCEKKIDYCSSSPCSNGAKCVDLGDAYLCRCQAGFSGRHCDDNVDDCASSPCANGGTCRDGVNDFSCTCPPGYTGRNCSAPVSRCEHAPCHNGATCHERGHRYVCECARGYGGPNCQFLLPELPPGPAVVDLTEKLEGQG
Procedure: (§1) The chimeric antibodies obtained in Example 6 were evaluated for their binding abilities to human DLL1 (purchased from Acro, DL1-H52H8) and DLL4 (purchased from Acro, DL4-H5227) proteins using the ELISA method. The ELISA detection method involved diluting DLL1 and DLL4 proteins with PBS to a final concentration of 1 μg/ml and coating them onto 384-well ELISA plates (purchased from Corning, 3700) at 4° C. overnight. The next day, the supernatant in the plate wells was discarded, and the wells were blocked with 80 μl of 3% milk (dissolved in PBS) for 2 hours, followed by washing three times with 80 μl of PBST (0.1% Tween20). […] After washing with 80 μl of PBST (0.1% Tween20) for five times, 25 μl of HRP-labeled goat anti-human secondary antibody (Jackson, 1:10000) was added to each well and incubated at room temperature for 1 hour, discard the supernatant, and the wells were then washed seven times with 80 μl of PBST (0.1% Tween20). After adding 25 μl of TMB chromogen solution for 10 minutes, the reaction was terminated with 2M HCl, and the absorbance value at 450 nm was measured with a Microplate reader (purchased from Biotek, Elx808). […] To assess the cross-reactivity of the antibodies with mouse and monkey DLL3, mouse DLL3-expressing plasmid pCMV3-mDLL3 (purchased from Beijing Yiqiao, MG58052-UT) and monkey DLL3-expressing plasmid pCMV3-rheDLL3 (purchased from Beijing Yiqiao, CG90919-UT) were used to construct overexpressing cell lines. The construction of overexpressing cells was as described in Examples 2-3. The binding abilities of the chimeric antibodies to these cells were determined by flow cytometry to assess the cross-reactivity of the antibodies with different species.

[3] = biological target: T3, human DLL4 (purchased from Acro, DL4-H5227) (human, UniProt Q9NR61 27-524); assay: ELISA on plate-coated human DLL4 protein (1 µg/ml), HRP goat anti-human secondary, OD 450 nm [right panel]
T3 construct: Bought; also called hDLL4
Procedure: as §1

[4] = biological target: T4, human DLL3, His tag (acrobiosystems, DL3-H52H4) (human, UniProt Q9NYJ7 27-492); assay: BLI (Octet 96e), antibody on sensor, DLL3-His 100-3.13 nM in solution
T4 construct: Bought; also called human DLL3 protein; free DLL3; not shown: His tag
T4 sequence (looked up): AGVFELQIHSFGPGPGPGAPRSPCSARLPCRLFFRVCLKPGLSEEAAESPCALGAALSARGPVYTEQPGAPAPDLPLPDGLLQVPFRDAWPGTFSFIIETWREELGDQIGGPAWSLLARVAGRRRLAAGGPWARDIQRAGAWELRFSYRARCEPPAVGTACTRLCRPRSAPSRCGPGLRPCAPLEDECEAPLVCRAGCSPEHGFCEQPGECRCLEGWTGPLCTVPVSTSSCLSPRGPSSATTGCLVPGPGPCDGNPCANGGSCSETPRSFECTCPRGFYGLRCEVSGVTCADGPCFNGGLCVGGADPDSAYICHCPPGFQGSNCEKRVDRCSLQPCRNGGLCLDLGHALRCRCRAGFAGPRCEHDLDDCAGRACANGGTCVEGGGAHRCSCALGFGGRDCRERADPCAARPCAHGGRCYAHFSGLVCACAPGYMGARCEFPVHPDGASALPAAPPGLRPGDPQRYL
Procedure: To assess the affinity of antibodies for human DLL3 protein, this study employed the BLI method to detect the binding kinetics curves of immobilized antibodies with free DLL3. The method was conducted according to the instrument's user manual (supplier: Fortebio, equipment model: Octet 96e). Briefly, AMC sensors were equilibrated for 60 s with Loading Buffer/Sample dilution buffer (1×PBS, pH7.4, with 0.1% BSA and 0.02% Tween-20) to obtain Baseline 1. The antibodies to be detected were diluted with Loading Buffer to a concentration of 10 ug/ml and bound to the equilibrated sensors, after which the sensors were re-equilibrated with Loading Buffer to obtain Baseline 2. The antibody-loaded sensors were then placed in human DLL3, His tag (supplier: acrobiosystems, catalog number: DL3-H52H4) diluted with Sample Dilution Buffer to concentrations ranging from 100 to 3.13 nM for 90 s to obtain the antibody-protein binding curve. Then, the sensors combined with antigen were placed in the Sample Dilution Buffer again and dissociated for 180 s, and the dissociation curve was obtained. The k-on and k-off values of the antibody-protein binding were calculated based on the binding and dissociation curves, and the KD values were calculated, with the results shown in Table 4.

[5] = biological target: T3, human DLL4 (purchased from Acro, …); assay: ELISA, plate-coated protein 1 µg/ml
Procedure: as §1

T3 sequence (Q9NR61 27-524 limits assumed): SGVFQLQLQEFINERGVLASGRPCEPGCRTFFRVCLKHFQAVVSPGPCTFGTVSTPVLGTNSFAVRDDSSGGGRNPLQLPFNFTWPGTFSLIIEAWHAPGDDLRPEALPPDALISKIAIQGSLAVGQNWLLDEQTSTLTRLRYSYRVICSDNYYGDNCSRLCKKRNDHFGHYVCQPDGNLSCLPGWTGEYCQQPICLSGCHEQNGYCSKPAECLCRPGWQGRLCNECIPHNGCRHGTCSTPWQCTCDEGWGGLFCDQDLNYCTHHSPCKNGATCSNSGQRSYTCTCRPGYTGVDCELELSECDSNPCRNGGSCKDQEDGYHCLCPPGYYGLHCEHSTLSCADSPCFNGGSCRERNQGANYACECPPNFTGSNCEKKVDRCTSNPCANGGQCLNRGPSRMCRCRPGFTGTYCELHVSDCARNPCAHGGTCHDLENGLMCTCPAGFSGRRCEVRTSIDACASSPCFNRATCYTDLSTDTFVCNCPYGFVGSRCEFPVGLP

Row | Binder | EC50 [1] [µg/mL] | binding result [2] | binding result [3] | Kd [4] [pM] | koff [4] [s⁻¹] | kon [4] [M⁻¹ s⁻¹] | binding result [5]
1 | FDA031 (antibody, human IgG1, kappa, V domains shown, also called anti-DLL3 antibody FDA031) VH: QVQLVQSGAEVKKPGASVKVSCKASGYTFTRYWIHWIRQAPGQGLEWMGYINPTTVYTEFNQNFKDRVTMTRDTSTSTVYMELSSLRSEDTAVYYCARGGSNFFDYWGQGTTVTVSS VL: AIQLTQSPSSLSASVGDRVTITCRASENIYYNLAWYQQKPGKAPKLLIYTANSLEDGVPSRFSGSGSGTDFTLTISSLQPEDFATYFCKQAYDVPPTFGGGTKLEIKR | 0.0233 | no binding (tested: 20 µg/ml) |  |  |  |  | 
2 | ch36H10 (antibody, human IgG1, kappa, V domains shown, Chimeric: murine variable regions on human IgG1 heavy and kappa light constant regions; also called chimeric antibody 36H10) VH: EVQFQQSGPELVKPGASVKISCKASGYTFTDYNIHWVRQSQGKSLEWIGLIYPFNGGIVYNQKFKSKATLTVDNSSTSAYMELRSLSSEDSAVYFCARLNWEGYWGQGSTLIVSS VL: DIKMTQSPSSIYAFLGERVTITCKASQDINSYLSWFQQKPGKSPKTLIYRANRLVGGVPSRFSGSGSGQDYSLTISSLEYEDVGDYYCLQYAEFPYTFGGGTKLEIKR | 0.0159 |  | no binding (tested: 20 µg/ml) | 99.1 | 0.000168 | 1.69e+06 | 
3 | ch4H7 (antibody, human IgG1, kappa, V domains shown, Chimeric: murine variable regions on human IgG1 heavy and kappa light constant regions; also called chimeric antibody 4H7) VH: EVQLQQSGAELVRPGALVKLSCKASGFNFKDYYIHWVKQRPELGLEWIGWIDPENGNAIYDPKFQDKASITADTSSNTAYLHLSSLTSEGTAVYYCASEDAYYPFAYWGQGTLVTVSA VL: DIVMSQSPSSLAVSVGEKVTMRCKSSQSLLYSSNQKNYLAWYQQKPGQSPKLLIYWASTRESGVPDRFTGSGSGTDFTLTISSVKAEDLAVYFCQQYYSYRTFGGGTKLEIKR | 0.0115 |  |  | 104 | 0.000111 | 1.07e+06 | no binding (tested: up to 20 µg/ml)
